Data on seven molecules can be found in paper PMC5542067.

Series [1] addresses T1, CTCF ZF3-7 (human, UniProt P49711 321-465).
T1 sequence: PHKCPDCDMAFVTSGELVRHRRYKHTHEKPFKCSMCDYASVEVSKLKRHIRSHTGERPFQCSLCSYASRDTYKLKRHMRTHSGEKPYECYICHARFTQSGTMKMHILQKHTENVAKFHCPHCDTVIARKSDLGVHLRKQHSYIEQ
Put plainly: crystal structure.

Series [2] deals with T2, CTCF ZF4-7 (human, UniProt P49711 349-465).
T2 sequence: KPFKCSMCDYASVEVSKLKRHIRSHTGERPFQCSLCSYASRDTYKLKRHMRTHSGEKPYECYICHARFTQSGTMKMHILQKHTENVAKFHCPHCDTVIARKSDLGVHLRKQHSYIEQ
Put plainly: fluorescence polarization. A general note: In fluorescence polarisation assays a small probe gives low polarisation when free and higher when bound to something large.

Series [3] deals with T2, CTCF ZF4-7. Put plainly: fluorescence polarization. This is another data set of the same source.
Series [4] has as its target T1, CTCF ZF3-7. Put plainly: fluorescence polarization.
The target in series [5] is T3, CTCF ZF4-8 (human, UniProt P49711 348-492).
T3 sequence: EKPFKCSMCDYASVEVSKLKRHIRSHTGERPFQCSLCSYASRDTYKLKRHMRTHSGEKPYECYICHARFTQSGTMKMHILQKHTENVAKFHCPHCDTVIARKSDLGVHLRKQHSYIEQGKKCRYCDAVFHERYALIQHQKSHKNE
Kind of series: fluorescence polarization.

For series [6], the target named is T1, CTCF ZF3-7. Kind of series: fluorescence polarization. The source holds these as a separate data set.
The target in series [7] is T3, CTCF ZF4-8. Kind of series: fluorescence polarization. The source holds these as a separate data set.
Series [8] concerns the target T2, CTCF ZF4-7. Kind of series: fluorescence polarization. This is another data set of the same source.
Series [9] has as its target T2, CTCF ZF4-7. Put plainly: fluorescence polarization. This is another data set of the same source.
The target in series [10] is T2, CTCF ZF4-7. Put plainly: fluorescence polarization. The source holds these as a separate data set.

Read-outs that look alike come from different tables or passages of the source.

B1: CORE crystal 17-mer (dsDNA)
DNA 1: GCCAGCAGGGGGCGCTA
DNA 2: TAGCGCCCCCTGCTGGC
For the molecule B1, in the series with CTCF ZF3-7 [1], the binding result is recorded as “binds”.

B2: CORE 5mC2 (dsDNA)
DNA 1: AGGACCAGCAGGGGGCGCA
DNA 2: TGCGCCCCCTGCTGGTCCT
modifications: 5mC at nt 6 of top strand (motif position 2)
For the molecule B2, in the series with CTCF ZF4-7 [2], the binding signal was ~23 fold lower affinity than CORE.

B3: CORE (dsDNA)
DNA 1: AGGACCAGCAGGGGGCGCA
DNA 2: TGCGCCCCCTGCTGGTCCT
On to B3, for which the binding signal with CTCF ZF4-7 [3] was 1 fold (reference); in the series with CTCF ZF3-7 [4], ~6 fold higher affinity than without ZF3; in the series with CTCF ZF4-8 [5] it was ~1 fold affinity vs ZF4-7 on CORE (similar); in the series with CTCF ZF3-7 [6] it was ~4 fold higher affinity than without ZF3.

B4: control (dsDNA)
DNA 1: AATGGACGAGTCATAGGAGA
DNA 2: TTCTCCTATGACTCGTCCAT
As to B4, the binding signal in the series with CTCF ZF4-8 [7] was ~10 fold higher affinity than without ZF8 on control.

B5: CORE 5mC12 (dsDNA)
DNA 1: AGGACCAGCAGGGGGCGCA
DNA 2: TGCGCCCCCTGCTGGTCCT
modifications: 5mC at nt 16 of top strand (motif position 12)
With B5, the binding signal with CTCF ZF4-7 [8] is 1.5 fold higher affinity than CORE.

B6: CORE A3G (dsDNA)
DNA 1: AGGACCGGCAGGGGGCGCA
DNA 2: TGCGCCCCCTGCCGGTCCT
As to B6, the binding signal with CTCF ZF4-7 [9] was ~1 fold affinity vs CORE (indistinguishable).

B7: H19 (dsDNA)
DNA 1: GTTGCCGCGTGGTGGCAG
DNA 2: CTGCCACCACGCGGCAAC
For the molecule B7, the binding signal with CTCF ZF4-7 [10] is ~6 fold lower affinity than CORE.
